Values of other authors, collected in article PMC12376249.
pKd: −log10 of the molar value.

Target: Histone H1 (Homo sapiens) (UniProt P07305)
Assay: single-molecule FRET

UniProt P07305, sequence (P07305 2-194): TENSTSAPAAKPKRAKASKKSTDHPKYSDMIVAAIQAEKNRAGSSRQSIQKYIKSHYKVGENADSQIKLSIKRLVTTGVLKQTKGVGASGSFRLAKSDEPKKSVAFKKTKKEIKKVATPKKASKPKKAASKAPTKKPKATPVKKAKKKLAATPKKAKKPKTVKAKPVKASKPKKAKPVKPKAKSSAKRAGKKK

- pKd: 10.30
Substance: Prothymosin alpha (from UniProt P06454)
